From paper PMC11131964, “Enantioselective transformation of phytoplankton-derived dihydroxypropanesulfonate by marine bacteria” (The ISME Journal, 2024)

Tests used:
[1] = target: T1, RpHpsP (S-DHPS dehydrogenase HpsP, SPO0596) (Ruegeria pomeroyi, UniProt Q5LVU9); assay: SPR (Biacore T200, CM5 chip); also NADH formation assay; assay type: binding
T1 sequence (Q5LVU9 1-332): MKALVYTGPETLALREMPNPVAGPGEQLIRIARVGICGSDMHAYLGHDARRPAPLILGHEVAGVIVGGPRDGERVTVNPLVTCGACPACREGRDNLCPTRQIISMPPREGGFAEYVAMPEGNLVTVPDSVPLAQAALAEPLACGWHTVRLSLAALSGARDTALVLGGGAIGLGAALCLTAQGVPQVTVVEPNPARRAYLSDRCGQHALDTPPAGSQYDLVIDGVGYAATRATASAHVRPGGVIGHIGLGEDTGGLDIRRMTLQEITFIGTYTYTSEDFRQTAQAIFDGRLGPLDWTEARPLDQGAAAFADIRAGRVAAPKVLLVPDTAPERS

[2] = target: HpsP from Dinoroseobacter shibae DFL 12 (S-DHPS dehydrogenase) (Dinoroseobacter shibae DFL 12) (UniProt A8LJR6); assay: crystal structure; DsHpsP alone, crystallised at 18°C in 0.2 M sodium formate, 18% PEG 3350; 2.3 Å; oligomer seen in the asymmetric unit
[3] = target: T2, RpHpsN (R-DHPS dehydrogenase HpsN, SPO0594) (Ruegeria pomeroyi, UniProt Q5LVV1); assay: SPR (Biacore T200, CM5 chip); also NADH formation assay, Km […]; assay type: binding
T2 sequence (Q5LVV1 1-435): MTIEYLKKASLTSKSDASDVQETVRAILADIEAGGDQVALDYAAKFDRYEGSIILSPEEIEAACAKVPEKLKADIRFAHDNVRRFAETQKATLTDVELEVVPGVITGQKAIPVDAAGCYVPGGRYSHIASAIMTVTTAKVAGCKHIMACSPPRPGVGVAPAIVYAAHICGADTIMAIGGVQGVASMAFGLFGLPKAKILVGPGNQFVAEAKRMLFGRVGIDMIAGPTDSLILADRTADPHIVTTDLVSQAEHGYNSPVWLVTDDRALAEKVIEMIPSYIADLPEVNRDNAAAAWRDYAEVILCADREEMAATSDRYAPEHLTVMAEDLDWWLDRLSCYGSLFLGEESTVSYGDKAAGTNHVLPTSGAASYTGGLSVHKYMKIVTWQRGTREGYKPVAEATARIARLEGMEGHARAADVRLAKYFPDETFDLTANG

[4] = target: T3, RpHpsO (R-DHPS dehydrogenase HpsO, SPO0595) (Ruegeria pomeroyi, UniProt Q5LVV0); assay: as above; assay type: binding
T3 sequence (Q5LVV0 1-253): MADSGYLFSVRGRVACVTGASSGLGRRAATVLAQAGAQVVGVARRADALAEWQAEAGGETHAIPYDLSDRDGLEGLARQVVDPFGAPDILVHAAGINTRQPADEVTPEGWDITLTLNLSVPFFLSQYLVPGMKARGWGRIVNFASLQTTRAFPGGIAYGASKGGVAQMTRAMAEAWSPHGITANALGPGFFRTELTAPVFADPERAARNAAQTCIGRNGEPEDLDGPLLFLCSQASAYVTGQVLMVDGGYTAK

[5] = substrate: OC[C@@H](O)[C@@H](O)[C@H](O)[C@@H](O)CO; assay: Michaelis-Menten kinetics of purified enzyme (Km); assay type: biochemical, Bacillus subtilis
[6] = target: the molecule itself; assay: crystal structure; RpHpsN alone, crystallised at 18°C in 0.1 M Tris pH 7.5, 1.1 M ammonium sulfate; 2.9 Å; oligomer seen in the asymmetric unit
[7] = target: the molecule itself; assay: crystal structure; RpHpsO alone, crystallised at 20°C in 0.1 M sodium citrate pH 5.4, 0.8 M sodium formate; 1.7 Å; oligomer seen in the asymmetric unit
[8] = substrate: N[C@H](CO)Cc1c[nH]cn1; assay: Michaelis-Menten kinetics of purified enzyme (Km); assay type: biochemical, Escherichia coli

## O=S(=O)(O)C[C@@H](O)CO [S-DHPS]
[1]
  Kd: 740 µM

## HpsP from Dinoroseobacter shibae DFL 12 (S-DHPS dehydrogenase) (from UniProt A8LJR6 1-512) (enzyme)
[2]
  stoichiometry N: 4

## O=S(=O)(O)C[C@H](O)CO [R-DHPS]
[3]
  Kd: 860 µM
[4]
  Kd: 330 µM

B1: D-sorbitol dehydrogenase (Bsubs1_010100003458) (Bacillus subtilis subsp. subtilis str. 168) (protein)
chain: THTVPQNMKAAVMHNTREIKIETLPVPDINHDEVLIKVMAVGICGSDLHYYTNGRIGNYVVEKPFILGHECAGEIAAVGSSVDQFKVGDRVAVEPGVTCGRCEACKEGRYNLCPDVQFLATPPVDGAFVQYIKMRQDFVFLIPDSLSYEEAALIEPFSVGIHAAARTKLQPGSTIAIMGMGPVGLMAVAAAKAFGAGTIIVTDLEPLRLEAAKKMGATHIINIREQDALEEIKTITNDRGVDVAWETAGNPAALQSALASVRRGGKLAIVGLPSQNEIPLNVPFIADNEIDIYGIFRYANTYPKGIEFLASGIVDTKHLVTDQYSLEQTQDAMERALQFKNECLKVMVYPNR
[5]
  Km: 32.35 ± 3.59 mM
  kcat: 0.027 ± 0.001 s⁻¹
  kcat/Km: 0.83 ± 0.045 M⁻¹ s⁻¹

B2: HpsN from Ruegeria pomeroyi DSS-3 (R-DHPS dehydrogenase) (enzyme)
chain: MTIEYLKKASLTSKSDASDVQETVRAILADIEAGGDQVALDYAAKFDRYEGSIILSPEEIEAACAKVPEKLKADIRFAHDNVRRFAETQKATLTDVELEVVPGVITGQKAIPVDAAGCYVPGGRYSHIASAIMTVTTAKVAGCKHIMACSPPRPGVGVAPAIVYAAHICGADTIMAIGGVQGVASMAFGLFGLPKAKILVGPGNQFVAEAKRMLFGRVGIDMIAGPTDSLILADRTADPHIVTTDLVSQAEHGYNSPVWLVTDDRALAEKVIEMIPSYIADLPEVNRDNAAAAWRDYAEVILCADREEMAATSDRYAPEHLTVMAEDLDWWLDRLSCYGSLFLGEESTVSYGDKAAGTNHVLPTSGAASYTGGLSVHKYMKIVTWQRGTREGYKPVAEATARIARLE
notes: HpsN, R-DHPS dehydrogenase (sulfopropanediol 3-dehydrogenase) of the aldehyde dehydrogenase superfamily, Ruegeria pomeroyi DSS-3, locus tag SPO0594; Wild type; Val218-Gly225 and Thr348-Leu374 lack electron density in the crystal structure; also called RpHpsN; SPO0594; source: E. coli BL21(DE3), pET28a, purified (HisTrap HP, Superdex 200 gel filtration)
[6]
  stoichiometry N: 4

B3: HpsO from Ruegeria pomeroyi DSS-3 (R-DHPS dehydrogenase) (enzyme)
chain: T3 sequence (Q5LVV0 1-253)
notes: HpsO, R-DHPS dehydrogenase of the short chain dehydrogenase/reductase family, Ruegeria pomeroyi DSS-3, locus tag SPO0595; Wild type; also called RpHpsO; SPO0595; source: E. coli BL21(DE3), pET28a, purified (HisTrap HP, Superdex 200 gel filtration)
[7]
  stoichiometry N: 4

B4: L-histidinol dehydrogenase (Escherichia coli K-12) (protein)
chain: SFNTIIDWNSCTAEQQRQLLMRPAISASESITRTVNDILDNVKARGDEALREYSAKFDKTTVTALKVSAEEIAAASERLSDELKQAMAVAVKNIETFHTAQKLPPVDVETQPGVRCQQVTRPVASVGLYIPGGSAPLFSTVLMLATPASIAGCKKVVLCSPPPIADEILYAAQLCGVQDVFNVGGAQAIAALAFGTESVPKVDKIFGPGNAFVTEAKRQVSQRLDGAAIDMPAGPSEVLVIADSGATPDFVASDLLSQAEHGPDSQVILLTPAADMARRVAEAVERQLAELPRAETARQALNASRLIVTKDLAQCVEISNQYGPEHLIIQTRNARELVDSITSAGSVFLGDWSPESAGDYASGTNHVLPTYGYTATCSSLGLADFQKRMTVQELSKEGFSALASTIETLAAAERLTAHKNAVTLRVNALKEQA
[8]
  Km: 9.37 ± 3.63 mM
  kcat: 0.042 ± 0.022 s⁻¹
  kcat/Km: 4 ± 2 M⁻¹ s⁻¹
